# Residue numbers refer to the chain shown, from its start.
# B1: SEQ ID NO: 304: GAT polypeptide (protein)
# chain: MIEVKPINAEDTYEIRHRILRPNQPLEACKYETDSLGGTFHLGGYYRGKLISIASFNQAEHPELEGQKQYQLRGMATLEGYREQKAGSTLIRHAEELLRKKGADLLWCNARTSASGYYKKLGFSEQGGVYDIPPVGPHILMYKKLT
# modifications: 13_8G6
# notes: GAT polypeptide
# B2: SEQ ID NO: 335: GAT polypeptide (protein)
# chain: B1 chain with E14K, K30M, S35L, I51V, E96A, G128E, V135T
# modifications: 15_4F11
# notes: GAT polypeptide
# B3: SEQ ID NO: 309: GAT polypeptide (protein)
# chain: B1 chain with S35L, G38S, I51V, N57H, G80E, E96A, G128E, I132T, V135T
# modifications: 14_11C2
# notes: GAT polypeptide
# B4: SEQ ID NO: 263: GAT polypeptide (protein)
# chain: B1 chain with S35L, G37R, N57H, G128E
# modifications: 13_10F6
# notes: GAT polypeptide
# B5: SEQ ID NO: 313: GAT polypeptide (protein)
# chain: B1 chain with S35L, G37R, T39A, I51V, N57H, G128E, V135T
# modifications: 14_2G11
# notes: GAT polypeptide
# B6: SEQ ID NO: 310: GAT polypeptide (protein)
# chain: B1 chain with S35L, I51V, N57H, E96A, S124R
# modifications: 14_12D8
# notes: GAT polypeptide
# B7: SEQ ID NO: 330: GAT polypeptide (protein)
# chain: B1 chain with K30M, S35L, G37R, T39A, I51V, N57H, G128E, I132T
# modifications: 15_12D6
# notes: GAT polypeptide
# B8: SEQ ID NO: 328: GAT polypeptide (protein)
# chain: B1 chain with S35L, G37R, T39A, N57H, E96A, G128E, V135T
# modifications: 15_11H3
# notes: GAT polypeptide
# B9: SEQ ID NO: 326: GAT polypeptide (protein)
# chain: B1 chain with K30M, S35L, I51V, N57H, G80E, G128E
# modifications: 15_10D6
# notes: GAT polypeptide
# B10: SEQ ID NO: 324: GAT polypeptide (protein)
# chain: B1 chain with S35L, I51V, N57H, G80E, E96A, G128E, V135T
# modifications: 14_8F7
# notes: GAT polypeptide
# B11: SEQ ID NO: 327: GAT polypeptide (protein)
# chain: B1 chain with S35L, G37R, T39A, I51V, K100R, G128E, V135T
# modifications: 15_11F9
# notes: GAT polypeptide
# B12: SEQ ID NO: 314: GAT polypeptide (protein)
# chain: B1 chain with S35L, G37R, T39A, I51V, N57H, E96A, V135A
# modifications: 14_3B2
# notes: GAT polypeptide
# B13: SEQ ID NO: 311: GAT polypeptide (protein)
# chain: B1 chain with S35L, T39A, N57H, G80E, G128E, V135T
# modifications: 14_12H6
# notes: GAT polypeptide
# B14: SEQ ID NO: 307: GAT polypeptide (protein)
# chain: B1 chain with S35L, G37R, T39A, I51V, N57H, G80E, G128E, I132T
# modifications: 14_10H3
# notes: GAT polypeptide
# B15: SEQ ID NO: 331: GAT polypeptide (protein)
# chain: B1 chain with S35L, I51V, N57H, G128K
# modifications: 15_12D8
# notes: GAT polypeptide
# B16: SEQ ID NO: 316: GAT polypeptide (protein)
# chain: B1 chain with K30M, S35L, I51V, G128E, I132T, I139V
# modifications: 14_6A8
# notes: GAT polypeptide
# B17: SEQ ID NO: 333: GAT polypeptide (protein)
# chain: B1 chain with S35L, G37R, T39A, A54V, N57H, G128E, I132T, V135A, K143T
# modifications: 15_3F10
# notes: GAT polypeptide
# B18: SEQ ID NO: 336: GAT polypeptide (protein)
# chain: B1 chain with S35L, I51V, N57H, G80E, G128E, V135T
# modifications: 15_4H3
# notes: GAT polypeptide
# B19: SEQ ID NO: 305: GAT polypeptide (protein)
# chain: B1 chain with S35L, N57H, G80E, G128E
# modifications: 13_9F6
# notes: GAT polypeptide
# B20: SEQ ID NO: 337: GAT polypeptide (protein)
# chain: B1 chain with S35L, N57H, G80E, G128E, V135T
# modifications: 15_6D3
# notes: GAT polypeptide
# B21: SEQ ID NO: 317: GAT polypeptide (protein)
# chain: B1 chain with S35L, N57H, I132M
# modifications: 14_6B10
# notes: GAT polypeptide
# B22: SEQ ID NO: 308: GAT polypeptide (protein)
# chain: B1 chain with S35L, G37R, T39A, I51V, N57H, G128E, I132T
# modifications: 14_10H9
# notes: GAT polypeptide
# B23: SEQ ID NO: 306: GAT polypeptide (protein)
# chain: B1 chain with S35L, G37R, T39A, N57H, G80E, G128E, I132T
# modifications: 14_10C9
# notes: GAT polypeptide
# B24: SEQ ID NO: 320: GAT polypeptide (protein)
# chain: B1 chain with K30M, S35L, G37R, I51V, N57H, G80E, G128E, I132T, V135A
# modifications: 14_7A1
# notes: GAT polypeptide
# B25: SEQ ID NO: 322: GAT polypeptide (protein)
# chain: B1 chain with S35L, G37R, T39A, G80E, E96A, G128E, I132T
# modifications: 14_7G1
# notes: GAT polypeptide
# B26: SEQ ID NO: 264: GAT polypeptide (protein)
# chain: B1 chain with S35L, G37R, T39A, I51V, N57H, K68R, G128E, V135T
# modifications: 13_12G6
# notes: GAT polypeptide
# B27: SEQ ID NO: 312: GAT polypeptide (protein)
# chain: B1 chain with S35L
# modifications: 14_2B6
# notes: GAT polypeptide
# B28: SEQ ID NO: 315: GAT polypeptide (protein)
# chain: B1 chain with S35L, G38S, N57H, G128E, I132T
# modifications: 14_4H8
# notes: GAT polypeptide
# B29: SEQ ID NO: 332: GAT polypeptide (protein)
# chain: B1 chain with S35L, G37R, I51V, N57H, G80E, G128E
# modifications: 15_12D9
# notes: GAT polypeptide
# B30: SEQ ID NO: 338: GAT polypeptide (protein)
# chain: B1 chain with S35L, G37R, T39A, I51V, N57H, G80E, G128K
# modifications: 15_6G11
# notes: GAT polypeptide
# B31: SEQ ID NO: 318: GAT polypeptide (protein)
# chain: B1 chain with S35L, E96A, G128E, I132T
# modifications: 14_6D4
# notes: GAT polypeptide
# B32: SEQ ID NO: 339: GAT polypeptide (protein)
# chain: B1 chain with S35L, N57H, G80E, K100R, G128E
# modifications: 15_9F6
# notes: GAT polypeptide
# B33: SEQ ID NO: 334: GAT polypeptide (protein)
# chain: B1 chain with S35L, I51V, N57H, G80E, G128E
# modifications: 15_3G11
# notes: GAT polypeptide
# B34: SEQ ID NO: 329: GAT polypeptide (protein)
# chain: B1 chain with S35L, N57H, E96A, G128E, V135T
# modifications: 15_12A8
# notes: GAT polypeptide
# B35: SEQ ID NO: 340: GAT polypeptide (protein)
# chain: B1 chain with S35L, N57H, Q58K, P62S, Q67E, K68E, H93Y, A114V, G128E, V135I
# modifications: 15F5
# notes: GAT polypeptide
# B36: SEQ ID NO: 319: GAT polypeptide (protein)
# chain: B1 chain with S35L, G37R, T39A, I51V, N57H, Q67L, G128E, I132T, V135T
# modifications: 14_7A11
# notes: GAT polypeptide
# B37: SEQ ID NO: 321: GAT polypeptide (protein)
# chain: B1 chain with S35L, I51V, N57H, E60K, G128E, I132T
# modifications: 14_7A9
# notes: GAT polypeptide
# B38: SEQ ID NO: 323: GAT polypeptide (protein)
# chain: B1 chain with S35L, I51V, N57H, G128E
# modifications: 14_7H9
# notes: GAT polypeptide
# B39: SEQ ID NO: 325: GAT polypeptide (protein)
# chain: B1 chain with S35L, G37R, T39A, I51V, N57H, S113T, G128E, Y130F, V135T
# modifications: 15_10C2
# notes: GAT polypeptide
# Assay: Standard protocol for determination of kcat and KM (continuous spectrophotometric assay, Acetyl CoA hydrolysis at 235 nm)
# Format: biochemical
# Conditions: purified protein; about 23° C.; 20 mM HEPES pH 6.8, 10% ethylene glycol, 0.2 mM acetyl CoA
# Method in brief: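 KM from initial rates over 0.125–10 mM glyphosate, fitted by Lineweaver-Burke transformation of Michaelis-Menten; kcat/KM computed as kcat divided by KM. Continuous spectrophotometric read of acetyl-CoA hydrolysis at 235 nm.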
row,Molecule,Kcat [s⁻¹]
1,B1,0.562
2,B2,1.34
3,B3,1.812
4,B4,0.81
5,B5,1.16
6,B6,1.04
7,B7,2.477
8,B8,1.03
9,B9,1.12
10,B10,1.51
11,B11,1.27
12,B12,1.14
13,B13,1.52
14,B14,1.753
15,B15,0.995
16,B16,0.728
17,B17,0.812
18,B18,1.56
19,B19,0.983
20,B20,1.43

row,Molecule,Kcat [s⁻¹]
1,B21,2.245
2,B22,2.12
3,B23,2.12
4,B24,2.597
5,B25,2.278
6,B26,0.868
7,B27,0.57
8,B28,3.313
9,B29,0.995
10,B30,0.615
11,B31,4.27
12,B32,0.993
13,B33,1.19
14,B34,1.28
15,B35,0.0083
16,B36,3.287
17,B37,4.098
18,B38,1.07
19,B39,1.16

# Same assay, conditions: purified protein; about 23° C.; pH 6.8; 0.2 mM acetyl CoA; glyphosate 0.125 to 10 mM
row,Molecule,Km [µM]
1,B1,610
2,B2,900
3,B3,1000
4,B4,1300
5,B5,1400
6,B6,1000
7,B7,740
8,B8,1000
9,B9,1000
10,B10,1800
11,B11,1000
12,B12,850
13,B13,900
14,B14,600
15,B15,1300
16,B16,780
17,B17,900
18,B18,1000
19,B19,1300
20,B20,1400

row,Molecule,Km [µM]
1,B21,1400
2,B22,1100
3,B23,900
4,B24,1600
5,B25,660
6,B26,1200
7,B27,630
8,B28,2000
9,B29,1400
10,B30,900
11,B31,1000
12,B32,1100
13,B33,1200
14,B34,1600
15,B35,2900
16,B36,3700
17,B37,3200
18,B38,1300
19,B39,800

# From patent US8008547B2, “Glyphosate-N-acetyltransferase (GAT) genes” (E.I. duPont de Nemours, priority 2000, dated 2011)
